Data published in paper doi:10.1101/2024.05.02.592151 (bioRxiv, 2024).

Tests used:
[1] = target: T1, CAP-G2 (in recombinant human condensin II) (human, UniProt Q86XI2 1-1143); assay: cryo-EM structure
T1 sequence: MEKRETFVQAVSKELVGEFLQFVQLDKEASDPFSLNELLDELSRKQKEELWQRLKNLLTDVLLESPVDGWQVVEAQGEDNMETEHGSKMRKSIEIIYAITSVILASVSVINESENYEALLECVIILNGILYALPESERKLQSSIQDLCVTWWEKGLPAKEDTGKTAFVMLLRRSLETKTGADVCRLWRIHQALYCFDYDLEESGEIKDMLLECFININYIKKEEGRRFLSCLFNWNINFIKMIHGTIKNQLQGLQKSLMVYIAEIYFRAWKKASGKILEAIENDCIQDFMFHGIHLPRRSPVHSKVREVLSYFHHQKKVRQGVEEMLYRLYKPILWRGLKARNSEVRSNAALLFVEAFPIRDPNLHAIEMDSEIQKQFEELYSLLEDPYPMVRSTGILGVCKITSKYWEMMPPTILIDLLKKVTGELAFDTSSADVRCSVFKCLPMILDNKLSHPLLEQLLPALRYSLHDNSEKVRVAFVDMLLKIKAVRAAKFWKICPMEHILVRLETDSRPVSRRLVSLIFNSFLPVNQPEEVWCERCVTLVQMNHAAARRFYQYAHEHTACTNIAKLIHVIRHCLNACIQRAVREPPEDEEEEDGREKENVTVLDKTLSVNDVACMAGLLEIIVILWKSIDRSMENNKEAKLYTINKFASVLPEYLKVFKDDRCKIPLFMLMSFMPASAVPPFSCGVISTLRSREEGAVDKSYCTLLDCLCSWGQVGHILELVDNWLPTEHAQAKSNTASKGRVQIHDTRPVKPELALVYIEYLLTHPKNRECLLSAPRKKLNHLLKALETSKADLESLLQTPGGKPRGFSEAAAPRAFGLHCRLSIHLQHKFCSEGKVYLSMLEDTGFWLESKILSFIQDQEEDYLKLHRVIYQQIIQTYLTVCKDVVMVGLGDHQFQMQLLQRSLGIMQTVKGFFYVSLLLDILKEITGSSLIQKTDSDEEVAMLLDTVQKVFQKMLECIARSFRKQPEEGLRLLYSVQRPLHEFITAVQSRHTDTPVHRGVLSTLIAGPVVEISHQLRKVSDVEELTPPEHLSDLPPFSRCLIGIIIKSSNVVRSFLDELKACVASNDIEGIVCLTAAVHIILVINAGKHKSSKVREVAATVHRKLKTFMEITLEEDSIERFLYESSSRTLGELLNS

[2] = target: T2, CAP-D3 (in recombinant human condensin II) (human, UniProt P42695 1-1498); assay: cryo-EM structure
T2 sequence: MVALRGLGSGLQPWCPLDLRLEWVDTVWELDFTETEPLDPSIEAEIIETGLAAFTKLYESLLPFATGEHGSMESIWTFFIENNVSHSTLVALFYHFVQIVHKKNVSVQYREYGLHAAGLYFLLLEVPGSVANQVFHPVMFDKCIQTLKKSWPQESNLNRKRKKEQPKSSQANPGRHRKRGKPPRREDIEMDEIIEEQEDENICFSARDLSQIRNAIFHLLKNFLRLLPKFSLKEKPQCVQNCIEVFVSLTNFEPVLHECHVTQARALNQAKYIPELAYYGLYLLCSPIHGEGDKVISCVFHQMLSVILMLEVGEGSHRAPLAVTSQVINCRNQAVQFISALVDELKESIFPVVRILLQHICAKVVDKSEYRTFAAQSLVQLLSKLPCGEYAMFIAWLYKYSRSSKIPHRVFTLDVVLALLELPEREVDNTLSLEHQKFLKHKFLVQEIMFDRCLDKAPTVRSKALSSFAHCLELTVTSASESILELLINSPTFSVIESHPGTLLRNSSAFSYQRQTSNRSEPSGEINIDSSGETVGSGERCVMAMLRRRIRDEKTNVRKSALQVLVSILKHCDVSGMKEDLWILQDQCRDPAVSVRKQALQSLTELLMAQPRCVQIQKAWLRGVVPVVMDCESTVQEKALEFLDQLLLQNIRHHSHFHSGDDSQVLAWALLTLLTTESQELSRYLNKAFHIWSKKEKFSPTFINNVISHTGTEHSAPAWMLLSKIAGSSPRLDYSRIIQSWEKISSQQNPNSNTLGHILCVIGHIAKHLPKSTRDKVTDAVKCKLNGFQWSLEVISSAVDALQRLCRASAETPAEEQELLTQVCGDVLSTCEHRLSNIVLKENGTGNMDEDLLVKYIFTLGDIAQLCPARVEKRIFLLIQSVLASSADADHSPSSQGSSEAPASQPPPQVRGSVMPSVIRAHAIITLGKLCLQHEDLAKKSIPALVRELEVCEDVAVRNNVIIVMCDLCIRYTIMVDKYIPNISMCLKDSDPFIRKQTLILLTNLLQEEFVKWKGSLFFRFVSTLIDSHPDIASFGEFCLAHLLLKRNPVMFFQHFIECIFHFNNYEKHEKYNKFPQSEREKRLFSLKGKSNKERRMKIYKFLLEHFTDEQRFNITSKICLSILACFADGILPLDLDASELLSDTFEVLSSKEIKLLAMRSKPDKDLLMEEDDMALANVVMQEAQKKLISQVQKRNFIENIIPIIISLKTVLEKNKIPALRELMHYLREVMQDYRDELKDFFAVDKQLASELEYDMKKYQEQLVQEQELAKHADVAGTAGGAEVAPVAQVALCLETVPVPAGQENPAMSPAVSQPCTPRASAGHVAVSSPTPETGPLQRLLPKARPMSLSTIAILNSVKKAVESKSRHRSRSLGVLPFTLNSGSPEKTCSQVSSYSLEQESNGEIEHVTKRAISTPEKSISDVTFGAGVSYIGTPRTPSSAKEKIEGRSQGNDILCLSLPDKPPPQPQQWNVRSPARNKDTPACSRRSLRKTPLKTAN

[3] = target: SMC2 (in recombinant human condensin II) (human, UniProt O95347 1-1197); assay: cryo-EM structure
SMC2 (in recombinant human condensin II), sequence (O95347 whole entry): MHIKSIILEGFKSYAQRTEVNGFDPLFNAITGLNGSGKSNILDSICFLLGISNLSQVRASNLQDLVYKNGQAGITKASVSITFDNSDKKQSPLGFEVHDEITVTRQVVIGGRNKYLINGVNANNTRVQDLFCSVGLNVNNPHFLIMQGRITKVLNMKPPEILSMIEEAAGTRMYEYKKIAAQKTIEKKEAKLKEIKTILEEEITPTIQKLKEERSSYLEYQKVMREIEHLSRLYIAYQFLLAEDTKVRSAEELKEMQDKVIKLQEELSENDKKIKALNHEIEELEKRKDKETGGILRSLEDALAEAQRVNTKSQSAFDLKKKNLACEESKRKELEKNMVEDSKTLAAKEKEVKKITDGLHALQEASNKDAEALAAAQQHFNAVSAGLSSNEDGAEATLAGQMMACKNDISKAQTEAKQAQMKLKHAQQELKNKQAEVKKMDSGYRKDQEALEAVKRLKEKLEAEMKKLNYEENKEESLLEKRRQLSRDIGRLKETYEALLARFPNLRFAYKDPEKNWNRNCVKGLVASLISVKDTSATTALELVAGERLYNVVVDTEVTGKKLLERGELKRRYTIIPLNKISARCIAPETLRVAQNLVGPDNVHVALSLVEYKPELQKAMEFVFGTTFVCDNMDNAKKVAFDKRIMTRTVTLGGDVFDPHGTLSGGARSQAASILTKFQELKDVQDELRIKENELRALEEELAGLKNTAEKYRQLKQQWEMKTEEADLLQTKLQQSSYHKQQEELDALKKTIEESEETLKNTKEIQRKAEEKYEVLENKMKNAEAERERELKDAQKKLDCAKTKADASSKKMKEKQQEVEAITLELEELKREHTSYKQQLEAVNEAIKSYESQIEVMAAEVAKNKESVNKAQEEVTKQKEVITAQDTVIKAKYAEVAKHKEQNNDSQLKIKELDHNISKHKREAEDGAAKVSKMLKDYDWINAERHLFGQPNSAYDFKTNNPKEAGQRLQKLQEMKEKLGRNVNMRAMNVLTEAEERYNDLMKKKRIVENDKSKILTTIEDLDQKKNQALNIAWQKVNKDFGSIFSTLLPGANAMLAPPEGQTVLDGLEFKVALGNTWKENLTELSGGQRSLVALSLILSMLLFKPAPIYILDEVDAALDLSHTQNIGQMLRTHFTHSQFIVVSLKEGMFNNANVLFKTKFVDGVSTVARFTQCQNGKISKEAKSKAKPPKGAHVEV

[4] = target: SMC4 (in recombinant human condensin II) (human, UniProt Q9NTJ3 2-1288); assay: cryo-EM structure
SMC4 (in recombinant human condensin II), sequence (Q9NTJ3 2-1288): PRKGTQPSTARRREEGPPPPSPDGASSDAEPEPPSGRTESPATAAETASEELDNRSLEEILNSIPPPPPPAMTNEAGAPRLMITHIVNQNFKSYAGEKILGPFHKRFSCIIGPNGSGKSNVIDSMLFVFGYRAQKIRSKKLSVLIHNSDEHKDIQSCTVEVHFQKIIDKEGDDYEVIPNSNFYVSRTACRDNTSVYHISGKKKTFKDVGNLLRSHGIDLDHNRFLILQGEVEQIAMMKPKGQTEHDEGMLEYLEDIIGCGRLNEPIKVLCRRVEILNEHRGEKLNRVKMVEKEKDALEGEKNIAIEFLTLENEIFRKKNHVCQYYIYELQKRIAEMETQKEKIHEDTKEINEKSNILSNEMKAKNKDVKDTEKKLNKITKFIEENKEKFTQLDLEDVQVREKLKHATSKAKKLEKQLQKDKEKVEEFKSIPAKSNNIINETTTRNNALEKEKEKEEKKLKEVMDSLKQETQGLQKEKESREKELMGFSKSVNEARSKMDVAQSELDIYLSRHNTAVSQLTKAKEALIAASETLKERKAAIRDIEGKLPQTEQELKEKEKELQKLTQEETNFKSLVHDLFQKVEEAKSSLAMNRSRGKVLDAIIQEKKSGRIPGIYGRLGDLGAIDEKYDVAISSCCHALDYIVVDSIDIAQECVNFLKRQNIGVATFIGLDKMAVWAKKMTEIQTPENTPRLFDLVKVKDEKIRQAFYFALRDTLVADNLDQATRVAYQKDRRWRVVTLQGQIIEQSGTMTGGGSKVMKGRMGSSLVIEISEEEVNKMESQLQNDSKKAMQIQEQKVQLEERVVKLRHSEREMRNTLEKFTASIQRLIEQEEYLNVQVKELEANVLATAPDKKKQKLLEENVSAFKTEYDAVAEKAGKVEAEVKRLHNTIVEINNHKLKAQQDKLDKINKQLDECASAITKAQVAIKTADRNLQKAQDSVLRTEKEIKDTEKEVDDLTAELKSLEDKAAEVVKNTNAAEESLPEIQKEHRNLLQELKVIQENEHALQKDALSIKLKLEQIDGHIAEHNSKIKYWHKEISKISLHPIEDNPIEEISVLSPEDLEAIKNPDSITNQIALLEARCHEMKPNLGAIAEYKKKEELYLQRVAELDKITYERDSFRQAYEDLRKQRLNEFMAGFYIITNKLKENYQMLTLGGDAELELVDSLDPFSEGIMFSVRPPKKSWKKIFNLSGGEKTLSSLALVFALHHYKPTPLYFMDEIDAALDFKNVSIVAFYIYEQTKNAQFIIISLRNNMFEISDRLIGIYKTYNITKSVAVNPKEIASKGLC

[5] = target: T1, CAP-G2 (in recombinant human condensin …); assay: cross-linking
[6] = target: condensin II pentamer (recombinant, human) (human, UniProt O95347;Q9NTJ3;Q6IBW4;P42695;Q86XI2); assay: cross-linking
condensin II pentamer (recombinant, human), sequence (O95347 whole entry, chain 1 of 2): as the sequence (O95347 whole entry) above
condensin II pentamer (recombinant, human), sequence (Q9NTJ3 2-1288, chain 2 of 2): as the sequence (Q9NTJ3 2-1288) above

Measured: binding result

B1: CAP-H2 (in recombinant human condensin II) (natural protein)
chain: MEDVEARFAHLLQPIRDLTKNWEVDVAAQLGEYLEELDQICISFDEGKTTMNFIEAALLIQGSACVYSKKVEYLYSLVYQALDFISGKRRAKQLSSVQEDRANGVASSGVPQEAENEFLSLDDFPDSRTNVDLKNDQTPSEVLIIPLLPMALVAPDEMEKNNNPLYSRQGEVLASRKDFRMNTCVPHPRGAFMLEPEGMSPMEPAGVSPMPGTQKDTGRTEEQPMEVSVCRSPVPALGFSQEPGPSPEGPMPLGGGEDEDAEEAVELPEASAPKAALEPKESRSPQQSAALPRRYMLREREGAPEPASCVKETPDPWQSLDPFDSLESKPFKKGRPYSVPPCVEEALGQKRKRKGAAKLQDFHQWYLAAYADHADSRRLRRKGPSFADMEVLYWTHVKEQLETLRKLQRREVAEQWLRPAEEDHLEDSLEDLGAADDFLEPEEYMEPEGADPREAADLDAVPMSLSYEELVRRNVELFIATSQKFVQETELSQRIRDWEDTVQPLLQEQEQHVPFDIHTYGDQLVSRFPQLNEWCPFAELVAGQPAFEVCRSMLASLQLANDYTVEITQQPGLEMAVDTMSLRLLTHQRAHKRFQTYAAPSMAQP
binds: [1] | [2] | [3] | [4]

B2: MBP-MCPH1_(1-435) (domain or fragment)
chain: MAAPILKDVVAYVEVWSSNGTENYSKTFTTQLVDMGAKVSKTFNKQVTHVIFKDGYQSTWDKAQKRGVKLVSVLWVEKCRTAGAHIDESLFPAANMNEHLSSLIKKKRKCMQPKDFNFKTPENDKRFQKKFEKMAKELQRQKTNLDDDVPILLFESNGSLIYTPTIEINSRHHSAMEKRLQEMKEKRENLSPTSSQMIQQSHDNPSNSLCEAPLNISRDTLCSDEYFAGGLHSSFDDLCGNSGCGNQERKLEGSINDIKSDVCISSLVLKANNIHSSPSFTHLDKSSPQKFLSNLSKEEINLQRNIAGKVVTPDQKQAAGMSQETFEEKYRLSPTLSSTKGHLLIHSRPRSSSVKRKRVSHGSHSPPKEKCKRKRSTRRSIMPRLQLCRSEDRLQHVAGPALEALSCGESSYDDYFSPDNLKERYSENLPPESQL
binds: [5] | [6]
